The values that follow come from the DeepSol protein solubility set.

The data set in a line: soluble on expression in E. coli; label from the status in PepcDB or PDB records.
“MSLRKFIDLHLHLDGSVPVSTVKKLMQEHDLPIPTDQELRQELSVDSSCKSLDQFLEKFALPNKLMQTRHDLETIVYDLLTELKAQGLVYAEIRFAPQLHTKEGLTQEDAIKAAISGLNKFLYDQKEKNDSPELHAGLILCLMRFSNNQKENIETVELAKKFLNKGVVGLDLAGAEGPIPNIKYKSFFNQAQQLGVPYTIHAGEADGPDSIRQALAMGAKRIGHGIRCTEDTQLTQELIDQQIVLECCATSNMNTKAFDQIDSYPIKKLLHKGMKVTLNSDDMTVSDTNLLHEYKVLEKRTDLTPEEETTLYLNAVDAAFTTPDEKIRLRAFLQKEGHHHHHH”: the “soluble on expression in E. coli” value is on record as “soluble”. The entry for “MSLRKGIIAAGNMLVDHVHQIRQWPERGWLVEIVHSERATGGAPLNVLLTLAKMHAGLPLQAVGLIGEDNDGDYITAMLDQYHINRQLVQRTSSAPTSMTQVMTDAEGQRTFFHSPGANRLLDLPAFEPLDAPLKIFHLGYLLLLESLDRPDEVYGTRSARLLAQMRERGYEVSLDLVSRKGDPRYRPLVLPALKHLDYLTINELEASEFSGLEIRLPNGEPHVANIARAASALLDAGVRQRVVIHCPEGAWGVSRTEAGRWVPSWRLPPEEIIGSVGAGDAFCAGLLYGSHERWPLTASLQLAHACARASLQAANAIDGAKTLPELQAFIQLQNGEGHHHHHH” is “soluble”; for “MSLRKPNEKTMKTKFCRTAVYCLCCFMFIQPITGSQVNDTHEGVLHIDKQKTRKVSRVQYGFHYEEIGMIGEGALHAELVRNRSFEEATPPADLAVKNGLYQNVPNPRGKNKDVFHVDPLIGWNTYPLSYTPIFISRTEENPLNKENKYSMLVNVTEDIANNPEAMILNRGYYGMNLRKEVSYHLSMYIKSKNYTALLQVMLVDEQGKPVSTQLVLDVKGKEWTKLTGTLKPDKDVKRGMLAIQPLGKGQFQLDVVSLFPSDTWDNGKSVFRADIMQNLKEYAPDFIRFPGGCIVHGVNEATMYHWKKTIGPIENRPGQWSKWAPYYRTDGIGYHEFYELCEYLGADAMYVIPTGMICTGWVKQSSPWNFIQPDVDLDAYIQDALDAIEYAIGPETSKWGALRVKNGHPKPFPLKYIEIGNEDFGPVYWERYEKIYQALHRQYPDLIYIANSIIGKENDDKRIDIAKFVNPKNVKVFDEHHYQPVEWACKQHYRFDNYERGIADLFVGELGIDGKYPYNLLASGAVRMSLERNGDLNPLLAERPVMRHWDFSEHRQLHSMLINGVDCSIRTSFYYLSKMFRDHTFDVCLDAGIQGMKGLQNVFVTMGYDSESKEYILKLINLRKQEVVLQTAVKGFGKKIQAQKITLSLEPGKNNTPEMPDAVKPVQSTVTLDLNKDLQLEASSMIVYRFKEGHHHHHH” it is “soluble”. As for “MSLRKRIIEVSTDYKILIVDDEEGIINSMKVMLTRSGYFCMGISNPLEAIETLKKEHFDMLILDYIMSPIHGDEVVAKIREFNKDIYILLLTGHKDLAPPLETIKALDIQGYCEKGDKFDQLLLLIESGIKSISQMRTIRQFKDGLNRILQAVPKIYQLQPIGVILEEILQGLMPLVNSKDAFILVDDCNSGEGKIIFKGVGEYDIKAESLVTMLSPELMENIGRARDSKKVLLLDHGIILPLTNEQNKSIGVIYIESSNLGDGIKLLEIYSTQAASSINNAFLHSLINMKKEELDRTYQELRKRYIDTIEALRLTVDAKDIYTRGHSDRVAYYAVKLGEAFGLPEDQLELLKVGGIFHDIGKIGTADDILFKTDKLSYDEYEEIKKHPLKGAYILSAISMFKDVVPLVKYHHERIDGKGYPEGLKGDEIPFLARILTVADAFDAMMSDRKYRSKLSLEETKEQFRLYSGTQFDPQVVEKLFEILENYDLMLEELSKTFTEGHHHHHH”, the entry is “soluble”; as for “MSLRPRMIDWLQARNIGVAVSQSYLAPVVDRAARQEQYRRMVQRSEPLISAYMGVRLPQPIDRIYVFDRAEWIEANLAAFQSLFAPLEELYDEVSARQGMVGILIGQLNSQLIGMQVGALIGFLARRVLGQYDLGLLSPDPDLRGALYFVEPNIARICAQLGLNGDDFRMWIALHETTHVFEFEAFPWVRAYFQDLLRQFIGRVNDQAAMLSVGIVRLIERLLQGQPIDHHWIELMLTPEQREIFTRMQALMSVVEGYSNHIMNAIGAQLLPSYPSIEARVRQRQLRRPLIEEAFNRITGMDLKLAQYQQGEAFINAVVAACGADFANRIWERPENLPTMDEIRAPHRWIARMSGEGHHHHHH”, “soluble”; as for “MSLRRDHTRTAQVTHVESLTNSPGVRENWPGWASPAVVERMVKSGVAKPWSHQVRAANLAHSGSNVIIATGISSGKSLGFLMPCTAAIAEGGSVLYLAPTKALAADQERKLAELAMPGVRAAVYDGDTPMEERSWARAHANYVLTNPDMLHRSIVARHPVWAGFLRRLSYVVVDEAHHYRGVFGSHVAQIMRRLRRVCGCYGAEPRFILASATTATPAETAQQLTGLPVVAVTGDGSARASLRFALVEPELTEKTGEQGAPMRRTATAVAAELLADLVSHEVSTLVFVRSRQAAELVALAAQRALADAGRPELARRVAAYRGGYLAEDRRRLEQRLRSGELLGLATTNALELGVDVSGLDAVVMAGWPGTRASLWQQAGRAGRSGRDALAVFVARDDPLDTYLVHHPDAIFGQDVEATVLDPDNPYVLAPHLCAAAEEEGHHHHHH”, “not soluble”.

“MSLRTTASEFDNFGYGVSDSLGMRDHVSARDLFVQKFRGKENEMLLCAFDGKHGATNQGHRISLVAKNMFVRNFTKELDEIKNDDEIENALRKAFLNFNKEINGILTAKKNKSFTPVPNMSKEALELNLVDDGNAGCTVSVIYIKDKKLYSANIGDIEALLCRNNGDQFLLTEKHDPTNREEFERIRASGGYVSGGGELDGQLSVSRGVGFFNFLPHTHCGPTIRRFKITNDDDMIILGSKQLWDFISYESAVDIIRKDKNDPMVAAQKLRDFAICYGATDKICVIVLTFGNREGHHHHHH”: the “soluble on expression in E. coli” value was “soluble”. The entry for “MSLRVLGIETSCDETAVAVLDDGKNVVVNFTVSQIEVHQKFGGVVPEVAARHHLKNLPILLKKAFEKVPPETVDVVAATYGPGLIGALLVGLSAAKGLAISLEKPFVGVNHVEAHVQAVFLANPDLKPPLVVLMVSGGHTQLMKVDEDYSMEVLGETLDDSAGEAFDKVARLLGLGYPGGPVIDRVAKKGDPEKYSFPRPMLDDDSYNFSFAGLKTSVLYFLQREKGYKVEDVAASFQKAVVDILVEKTFRLARNLGIRKIAFVGGVAANSMLREEVRKRAERWNYEVFFPPLELCTDNALMVAKAGYEKAKRGMFSPLSLNADPNLNVEGHHHHHH” is “soluble”. The entry for “MSLRVQANSRSMGVLEDKARARTFYKYLSKVYDRVNTFIWTEEMRAEALSMLDIDAEDRVLDVGCGTGFGTEGLLKHTEHVYGLDQSPHQLTKAWEKFGKHDPVAFHFGDAERLPFKPDSFDVVWSSGSIEYWPHPVQGLRELRRVAKPGSQVLVVGPDYPASTVFRKLADAIMLFYDEDEADRMFREAGYEEIQHRVLRKEPNSPPAIVTVARAPAADDEGHHHHHH” is “soluble”; for “MSLRYIVVGASAAGISGAKTLRELDKDAEIILVSKDENVYSRCILHHYISGHRDIEALDFTDRDFFEKYNIEWKKGLEVKAIDDREHVIVLSNGESLKYDKILLATGASAFIPPVENLREAKNVVGLRNLEDAIKIKEEAEKVKNVVVLGAGLVGIDAIAGLAFKDLNVTLVEMGDRVLPIQLDKYASSKYEKRFEDAGVKLKLGVRAEKVLIDENKNPKALLINTGEEIPCELIIVATGVRSNVAFLKDSSIETDRFGLIINEKGETNARDVYGAGDITGRNPIWPTAVKEGIIAANNMVGNEIFMEDFFGSKNTMNFLGLTTMSLGVVNAPDDSYTEEIDISGENYKKIIHKDGKIYGAIIQGDLSYAGVLTQLIKEKIHVSKVKKPLFEIDYADFFNIKENLEYTYEGHHHHHH” it is “soluble”.

In the case of “MSLRYTKEQCTAAEAQRLAQEIAFGPVVFQVSRLMLKFGIFQLLSGKREGYTLQEISGRTGLTRYAAQVLLEASLTIGTILLEEDRYVLAKAGWFLLNDKMARVNMEFNHDVNYQGLFHLEEALLNGRPEGLKVFGEWPTIYEGLSQLPEQVQKSWFGFDHFYSDQSFGKALEIVFSHHPKRLLDIGGNTGKWATQCVQYNKEVEVTIVDLPQQLEMMRKQTAGLSGSERIHGHGANLLDRDVPFPTGFDAVWMSQFLDCFSEEEVISILTRVAQSIGKDSKVYIMETLWDRQRYETASYCLTQISLYFTAMANGNSKMFHSDDLIRCIENAGLEVEEIQDNIGLGHSILQCRLKEGHHHHHH”, the “soluble on expression in E. coli” value is reported as “soluble”.

“MSLSAGLRFTLEVDGLPPDAFAVVSFHLNQSFSSLFSLDLSLVSQQFLSLEFAQVLDKMAYLTVWQGDDVQRRVKGVVTWFELGENDKNQMLYSMKVCPPLWRTGLRQNFRIFQNEDIESILATILKENGVTEWSPLFSEPHPSREFCVQYGETDYDFLCRMAAEEGIFFYEEHAQKSTDQSLVLCDTVRYLPESFEIPWNPNTRTEVSTLCISQFLYSAQIRPSSVVTKDYTFKRPGWAGRFDQEGQHQDYQRTQYEVYDYPGRFKGAHGQNFACWQMDGWRNNAEVARGTSRSPEIWPGRRIALTGHPQANLNREWQVVASELHGEQPQAVPGRRGSGTTLNNHFAVIPADRTWRPQPLLKPLVDGPQSAVVTGPAGEEIFCDEHGRVRVKFNWDRYNPSNQDSSCWIRVAQAWAGTGFGNLAIPRVGQEVIVDFLNGDPDQPIIMGRTEGHHHHHH”: the “soluble on expression in E. coli” value is on record as “not soluble”. The entry for “MSLSAPLGENMSNLTSEERHARLRQIYIEKERRQRLGSRMGLSPLEEEANDRLMAIRQVDEEFYNLWRNYHSQPPPFLKHLNIIDTNLYAALKSMPKGGLLHVHDSGMLRMEILIDLIYRDNLWVCVNLEQDFEDFRFSRYFPHIPPAEDYQCNWMLMSNFFQLESRLEFENRLRKILTVRPEGYKSSSELVRHLRRHQRIIHGLITFRPIWSEFIFTMLSDFYADGVHYVELRSSLPNMYDLDGNNFTILETAEALVSVSNIFKNSFKDFIGIKLIYAPSRNLNDSRMDEYLENARLLKLHFPNFFAGFDLNTFGDECNLPLLENVTQLLRIGKNIDFYFHAGESRCPDSSRPDANLLEALLLQSKRIGNAVNLPFHPEIMKVMKRLSIAVEICPLSNHYLQYFNDFRQHPAAYLIAAGFPIVIGSDYPCFWNSAPLTDDFYVAFVGVISGWGDLRLLKQFALNSFLFSSLSETEKNMAVSKWQCSWNRWVRNLVNSSGYEGHHHHHH” is “not soluble”. As for “MSLSCLFLQSAGEMLQNCAQSNCRIIPKKLRDMKREEICRLLADKVNKLKNKENSLSELLPDVRLLYGETPFARTPVMYEPGIIILFSGHKIGYINERVFRYDANEYLLLTVPLPFECETYATSEVPLAGLRLNVDILQLQELLMDIGEDEHFQPSMAASGINSATLSEEILCAAERLLDVMERPLDARILGKQIIREILYYVLTGPCGGALLALVSRQTHFSLISRVLKRIENKYTENLSVEQLAAEANMSVSAFHHNFKSVTSTSPLQYLKNYRLHKARMMIIHDGMKASAAAMRVGYESASQFSREFKRYFGVTPGEDAARMRAMQGNEGHHHHHH”, the entry is “soluble”. As for “MSLSDELAKLVVEVTSPDGNIKAKLVAGEQLTVAFRPGTYARYDERGLEHQLSRLAMLAWTGYRRGFFEAKGRAEDISAKDAEKEHLNHWDANTRRYNEEMAQIVARGKSSGNVIRAQAKGLAFWKVEIRDGTLASMDEATFCAECVSVLAAVQRDSKNQEILLKDFYFGLNIPKSWRKKNPLRIERGVMD”, the entry is “not soluble”. Turning to “MSLSDLTIQKVESRILDVPLIRPHGFATTTSTEQHILLVSVHLENGVIGYGEGVVPGGPWWGGESVETMKALVDGYLAPVLIGRAVSELAGIMADLERVVARARYAKAAVDVAMHDAWARSLNVPVRDLLGGTVRDKVDVTWALGVLPLDVAVAEIEERIEEFGNRSFKLKMGAGDPAEDTRRVAELAREVGDRVSLRIDINARWDRRTALHYLPILAEAGVELFEQPTPADDLETLREITRRTNVSVMADESVWTPAEALAVVKAQAADVIALKTTKHGGLLESKKIAAIAEAGGLACHGATSLEGPIGTAASLQFAASTKAISYGTELFGPQLLKDTYIVQEFEYKDGQVAIPQGPGLGVDVDMDKVNFYTRKEGHHHHHH”, the “soluble on expression in E. coli” value is on record as “soluble”.
